Reference: the supplement of paper PMC9876800

Test system: peptide library, one residue held at a place counted from the S/T acceptor
Assay: relative phosphorylation of the sub-library (ratio to the mean residue at this position); higher = residue favoured
Settings: human
Outline: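 Relative sub-library phosphorylation, a ratio to the mean residue at that position, was obtained by phosphorimaging and densitometry of spots on streptavidin membranes. Before capture, purified recombinant kinases were incubated for 90 min under kinase-specific conditions with 50 μM biotinylated degenerate peptide sub-libraries and 50 μM ATP spiked with γ-32P-ATP. Each sub-library fixed one residue at one position around a central Ser/Thr.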

LRRK2, construct: aa960-end, sequence (Q5S007 960-2527, looked up): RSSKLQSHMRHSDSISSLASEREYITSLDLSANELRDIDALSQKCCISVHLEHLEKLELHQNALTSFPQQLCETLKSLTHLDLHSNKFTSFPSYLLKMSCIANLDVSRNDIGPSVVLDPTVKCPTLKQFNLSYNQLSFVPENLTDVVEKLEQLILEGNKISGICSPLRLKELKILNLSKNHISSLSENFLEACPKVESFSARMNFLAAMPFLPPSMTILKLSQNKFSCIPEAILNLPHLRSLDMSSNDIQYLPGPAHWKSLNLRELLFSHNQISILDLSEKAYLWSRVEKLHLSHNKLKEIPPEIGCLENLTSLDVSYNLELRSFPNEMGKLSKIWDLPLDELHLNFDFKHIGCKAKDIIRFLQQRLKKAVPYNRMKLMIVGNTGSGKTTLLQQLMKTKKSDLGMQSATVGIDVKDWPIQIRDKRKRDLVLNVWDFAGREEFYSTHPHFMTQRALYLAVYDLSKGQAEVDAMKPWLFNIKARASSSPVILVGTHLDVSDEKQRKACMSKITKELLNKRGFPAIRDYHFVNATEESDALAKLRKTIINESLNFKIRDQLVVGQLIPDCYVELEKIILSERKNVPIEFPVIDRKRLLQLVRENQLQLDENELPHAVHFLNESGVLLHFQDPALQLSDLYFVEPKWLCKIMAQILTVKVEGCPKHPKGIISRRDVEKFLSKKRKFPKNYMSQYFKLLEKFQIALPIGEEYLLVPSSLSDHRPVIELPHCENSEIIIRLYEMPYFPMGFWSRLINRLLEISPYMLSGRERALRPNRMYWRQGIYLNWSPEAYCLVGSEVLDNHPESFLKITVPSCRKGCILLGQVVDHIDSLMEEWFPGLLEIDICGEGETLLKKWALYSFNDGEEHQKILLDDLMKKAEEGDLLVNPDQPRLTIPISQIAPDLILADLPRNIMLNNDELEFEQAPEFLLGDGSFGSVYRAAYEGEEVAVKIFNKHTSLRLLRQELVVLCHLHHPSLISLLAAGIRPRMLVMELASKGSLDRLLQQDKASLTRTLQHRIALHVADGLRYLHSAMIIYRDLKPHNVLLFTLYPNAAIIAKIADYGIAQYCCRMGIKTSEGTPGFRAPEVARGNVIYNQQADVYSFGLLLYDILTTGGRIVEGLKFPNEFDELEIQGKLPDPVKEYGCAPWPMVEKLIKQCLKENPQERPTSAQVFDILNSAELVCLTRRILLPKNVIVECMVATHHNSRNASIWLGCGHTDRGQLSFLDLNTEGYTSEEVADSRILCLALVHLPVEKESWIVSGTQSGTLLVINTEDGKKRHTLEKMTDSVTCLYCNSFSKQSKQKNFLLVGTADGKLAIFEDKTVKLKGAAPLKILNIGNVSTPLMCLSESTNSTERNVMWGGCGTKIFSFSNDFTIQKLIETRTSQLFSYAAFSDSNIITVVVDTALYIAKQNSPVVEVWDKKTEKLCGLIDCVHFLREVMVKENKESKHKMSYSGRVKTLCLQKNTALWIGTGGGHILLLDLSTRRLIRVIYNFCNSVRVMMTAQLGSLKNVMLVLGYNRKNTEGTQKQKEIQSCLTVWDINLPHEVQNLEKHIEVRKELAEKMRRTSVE

LRRK2, construct: aa960-end (from UniProt Q5S007)
relative phosphorylation
Settings	at +1	at +2	at +3	at +4	at -1	at -2	at -3	at -4	at -5
A fixed	0.869	0.867	0.909	0.908	0.82	1.05	0.893	0.985	1.01
D fixed	0.525	0.559	0.696	0.691	0.639	0.516	0.675	0.685	0.698
E fixed	0.546	0.451	0.595	0.673	0.517	0.477	0.662	0.719	0.741
F fixed	0.874	1.17	0.884	1	0.94	1.95	1.05	1.23	1.09
G fixed	0.82	0.826	0.894	0.966	1.17	1.18	1.06	1.06	0.993
H fixed	0.814	1.02	1.16	1.18	1.15	1.18	1.08	0.949	1.04
I fixed	0.996	0.834	0.649	0.934	0.482	0.684	0.74	0.758	0.906
K fixed	1.91	1.44	1.82	1.39	1.76	0.755	1.43	1.12	1.08
L fixed	1.15	0.786	0.755	0.865	0.812	0.943	0.85	0.842	0.858
M fixed	1.08	0.952	0.776	0.949	0.969	1.35	0.974	0.957	1.05
N fixed	0.977	0.943	1.12	1.12	1.03	0.799	0.881	0.805	0.83
P fixed	0.941	0.724	0.822	0.794	0.88	0.943	1.01	1.1	0.989
Q fixed	1.07	0.709	0.946	1.02	0.765	0.73	0.83	0.821	0.813
R fixed	1.88	2.91	2.3	1.45	1.97	0.994	2.07	1.4	1.37
V fixed	0.777	0.83	0.741	0.79	0.553	0.658	0.723	0.846	0.971
W fixed	0.857	0.908	1.05	1.09	0.879	1.28	0.996	1.65	1.47
Y fixed	0.916	1.07	0.885	1.17	1.65	1.51	1.07	1.08	1.1
pThr fixed	0.67	0.672	0.925	0.822	0.54	0.782	0.822	0.859	0.932
pTyr fixed	0.759	0.688	0.9	0.868	0.709	0.754	0.909	0.892	1.18
